# Experimental data as given in US20250152743A1, “SYNPOPTOSIS CIRCUITS FOR PROGRAMMABLE CELL DEATH CONTROL” (California Institute of Technology, priority 2023, published 2025).
# B1: TEVP-activatable caspase-3: caspase-3 whose cleavage site between large and small subunits was replaced by a TEVP cleavage site; SEQ ID NO: 10 (protein)
# chain: MGSENTENSVDSKSIKNLEPKIIHGSESMDSGISLDNSYKMDYPEMGLCIIINNKNFHKSTGMTSRSGTDVDAANLRETFRNLKYEVRNKNDLTREEIVELMRDVSKEDHSKRSSFVCVLLSHGEEGIIFGTNGPVDLKKITNFFRGDRCRSLTGKPKLFIIQACRGTELDCGIETENLYFQSGVDDDMACHKIPVEADFLYAYSTAPGYYSWRNSKDGSWFIQSLCAMLKQYADKLEFMHILTRVNRKVATEFESFSFDATFHAKKQIPCIVSMLTKELYFYH
# B2: TEVP-activatable GSDMA: GSDMA with TEVP cleavage site between N-terminal and C-terminal domains; SEQ ID NO: 16 (protein)
# chain: MGSPVFEDVTRALVRELNPRGDLTPLDSLIDFKHFRPFCLVLRKRKSTLFWGARYVRTDYTLLDLLEPGSSPSDLTDSGNFSFKNMLDVQVQGLVEVPKTVKVKGTAGLSQSSTLEVQTLSVAPSALENLKKERKLSADHSFLNEMRYHEKNLYVVMEAVEAKQEVTVEQTGNANAIFSLPSLALLGLQGSLNNNKAVTIPKGCVLAYRVRLLRVFLFNLWDIPYICNDSMQTFPKIRRVPCSAFISPTQMISEEPEEEKLIGEENLYFQSMHEDFKTLKEEVQRETQEVEKLSPVGRSSLLTSLSHLLGKKKELQDLEQKLEGALDKGQKVTLEALPKDVLLSKDAMDAILYFLGALTELTEEQLKILVKSLEKKILPVQLKLVESTLEQNFLQDKEGVFPLQPDLLSSLGEEELTLTEALVGLSGLEVQRSGPQYAWDPDTRHNLCALYAGLSLLHLLSRKSNALTYCALS
# B3: tobacco etch virus protease (protein)
# chain: MGSGESLFKGPRDYNPISSTICHLTNESDGHTTSLYGIGFGPFIITNKHLFRRNNGTLLVQSLHGVFKVKNTTTLQQHLIDGRDMIIIRMPKDFPPFPQKLKFREPQREERICLVTTNFQTKSMSSMVSDTSCTFPSSDGIFWKHWIQTKDGQCGSPLVSTRDGFIVGIHSASNFTNTNNYFTSVPKNFMELLTNQEAQQWVSGWRLNADSVLWGGHKVFMVKPEEPFQPVKEATQLMNS
# notes: viral input protease
# Legend:
# HEK cells = test: Transient DNA transfection of HEK cells, Annexin/Sytox staining, flow cytometry; type: cell-based, human; conditions: for cell death without the activating TEVP: expressed at high levels indicated by co-transfected Cherry
# Protocol: HEK cells were transiently co-transfected with DNA encoding the circuits, often along with Cherry, a fluorescent protein marker, and cells were analyzed by flow cytometry 16 to 24 hours later. To quantify cell death, the cells were strained with Annexin, Sytox, or both. Annexin stains apoptotic cells by binding to phosphatidylserine exposed on the outer leaflet, and pyroptotic cells by binding to phosphatidylserine in the inner leaflet after membrane permeabilization. In contrast, Sytox, a membrane-impermeable dye, primarily stains pyroptotic cells. Therefore, apoptotic cells are typically Annexin-high and Sytox-low, while pyroptotic cells are Annexin-high and Sytox-high (FIG. 7B). For simplicity, in experiments involving only a single death mode, a single relevant dye was often used. To focus on cells influenced by the circuits, the fraction of Annexin- or Sytox-positive cells was calculated after gating on the fluorescent co-transfection marker (FIG. 7C).
# On the day before transfection, HEK cells were seeded at a density of 0.3-0.6 million cells per well on a 12-well plate, 0.1-0.3 million cells per well on a 24-well plate, or 15,000-50,000 cells per well on a 96-well plate. The cells were allowed to attach to the plate overnight, for at least 8 hours. On the day of transfection, we treated the cells with purified DNA plasmids encoding circuit components. In addition to plasmids encoding circuit components, we often included a plasmid encoding a fluorescent co-transfection marker, at roughly 50 ng DNA per well on a 24-well plate. Given the different number of molecular components in each synthetic circuit and their various relative ratios, the total amount of DNA ranged from 50 to 1 μg per well on a 24-well plate, and was scaled by […] when other 12-well or 96-well plates were used, respectively. On the same plate, we often equalized the total amount of DNA across all transfected wells, using a filler plasmid encoding the neomycin resistance gene. To transfect cells with plasmid DNA, we used three types of transfection reagents—Lipofectamine 2000 (Thermo Fisher), Lipofectamine 3000 (Thermo Fisher), and FuGENE HD (Promega), according to manufacturers' instructions. Briefly, for a typical transfection experiment on a 24-well plate, we mixed plasmids and the transfection reagent, around 200 ng of DNA per 1 μl of Lipofectamine 2000, in 25 μl of Opti-MEM reduced serum medium (Thermo Fisher), incubated the mixture for 5-10 min at room temperature, and then added another 25 μl of Opti-MEM before transferring the mixture dropwise to culture wells. We also performed some transfection experiments using the Lipofectamine 3000 kit (Thermo Fisher), at a ratio of 2,000 ng of DNA, 2 ul of 4 ul of P3000, and 3 μl of Lipofectamine 3000. We similarly diluted the mixture in Opti-MEM before adding it to cells. For transfection with FuGENE, we used a ratio of 4 μl FuGENE:1 μg of DNA, and incubated the DNA-FuGENE mixture at room temperature for 5 min before transfection. To enable protein expression from plasmids with a doxycycline-inducible promoter, doxycycline was added to the cell culture at a final concentration of 100 ng/mL. In experiments involving Q-VD-OPh, the compound was added to the cell culture at a final concentration of 30 μM, immediately after the cells received the transfection mixture. To transfect cells with in vitro transcribed mRNA, Lipofectamine MessengerMax (Thermo Fisher) was used. Briefly, for transfection of one well in a 96-well plate, 0.1 μL of Lipofectamine MessengerMAX was diluted in 1.25 μL Opti-MEM and incubated for 10 minutes at room temperature. mRNA was then added to Opti-MEM to the appropriate conditions at the following amounts: 12.5 ng of fluorescent co-transfection marker, 56.25 ng of protease, and 56.25 ng of engineered executioner. Diluted mRNA was then added to diluted MessengerMAX reagent and incubated for 5 minutes at room temperature before addition to Jurkat or THP-1 cells in RPMI media. […]
# HEK293FT cells [1] = test: Co-transfection time course, cell death every 24 h over 4 days; type: cell-based, human; conditions: P3/P4-zipper reconstituted TEVP
# Protocol: Moreover, it was evaluated if some of these mutations affect the maximal caspase activation accessible and the time dependency between caspase activation and cell death by co-transfecting (i) input proteases (P3/P4-zipper reconstituted TEVP as a positive control, split TEVP without reconstitution domain as a negative control, or NeoR to evaluate caspase baseline activity; all with IRES-BFP to enable expression tracking) and (ii) output caspase (“ENLYFQS” (SEQ ID NO: 2)/“ENLYFQQ” (SEQ ID NO: 4)/“ENLFFQQ” (SEQ ID NO: 7)+co-transfected GFP for expression tracking) in HEK293FT cells and measuring cell death every 24 h over the course of 4 days.
# HEK293FT cells [2] = test: Polytransfection of input proteases and caspase cleavage-site variants, Annexin staining; type: cell-based, human
# Description: The cleavage efficiency of proteases is known to depend on corresponding accessible cleavage sites. Mutations to native protease cleavage sites can slow (i) the recruitment of substrates to the protease active site, (ii) catalytic reaction steps, or (iii) the release of the substrate from the protease. As described herein, this property to modulate cell death executioner activation thresholds. Specifically, we surveyed the following constructs with modified protease cleavage sites across a wide range of possible cell death executioner and input protease expression regimes: […]
# To evaluate how the mutated protease cleavage sites affect Caspase 3 activation, we polytransfected (i) input proteases (P3/P4-zipper reconstituted TEVP as a positive control, split TEVP without reconstitution domain as a negative control, or NeoR to evaluate caspase baseline activity; all with IRES-BFP to enable expression tracking) and (ii) output caspase (caspase+co-transfected GFP for expression tracking) in HEK293FT cells. Annexin staining as described above in Example 1 was used to quantify cell death.
# [3] = system: sender and receiver HEK cells
# Protocol: For experiments that involved circuit senders and receivers, sender HEK cells were seeded on a 12-well plate at a density of 0.6 million cells per well (day 1). On the following day (day 2), using Lipofectamine 3000 (Thermo Fisher), we transfected the sender cells with 450 ng of pLVX-M-PURO plasmid containing the cargo, 450 ng of M-psPAX2, and 100 ng of pCMV-VSV-G. To generate VLPs encoding two cargoes, we performed similar transfections using two cargo-containing plasmids, each at 225 ng. At 8 hours post transfection, we removed the media containing residual Lipofectamine particles, washed the cells gently with fresh media, and replaced the media. One day after transfection of sender cells (day 3), we typically seeded receiver HEK cells on a 24-well plate at a density of around 0.3 million cells per well or on a 96-well plate at around 75,000 cells per well. We also tried other receiver densities, in which case we needed to dilute the cells if they approached confluency during the course of the experiment. Two days after transfection of sender cells (day 4), we collected the sender supernatant, centrifuged it at 3,000 g for 5 min to remove cell debris, and passed it through a cellulose acetate filter with 0.45 μm pore size (VWR). […] After about 40 hours, we collected the co-cultured cells, stained them with Sytox, and analyzed cell death by flow cytometry. […]
Molecule,Sytox uptake (HEK cells; co-transfected with TEVP),cell death without the activating TEVP (HEK cells),"cell death / apoptosis, Annexin staining (HEK cells; with TEVP, flow cytometry 16 to 24 hours after DNA transfection)",maximal caspase activation / maximal fraction of dead cells (HEK293FT cells [1]),activation at high caspase expression with non-reconstituted split protease (HEK293FT cells [2]),"input/output expression required for caspase activation (activation threshold) (HEK293FT cells [2]; order, decreasing: ENLFFQQ, ENLFFQY, ENLYFQS+TEVP-cleavable DHFR, ENLFFQS~ENLYFQY~ENLYFQQ, ENLYFQS, both TEVP and TVMVP cleavage site)","mode of cell death, Sytox and Annexin double staining (HEK cells; background of TEVP activating TEVP-activatable caspase-3)",sender cell death [3],"activation of cognate engineered GSDMs containing the cleavage sites (HEK cells; tev, tvmv and hcv sites)"
B1,only modestly took up Sytox,induced noticeable cell death even without the activating TEVP,ability of the modified caspase-3 to kill HEK cells when co-transfected with TEVP was verified,comparable maximal fraction of dead cells,leaky activation,in decreasing order,,,
B2,,induced noticeable cell death even without the activating TEVP,,,,,converted apoptosis to pyroptosis,neither circuit component alone triggered substantial sender cell death,
B3,,,,,,,,neither circuit component alone triggered substantial sender cell death,orthogonally activated their cognate engineered GSDMs
